This is an account of results in paper PMC9352680, “A comprehensive thermodynamic model for RNA binding by the Saccharomyces cerevisiae Pumilio protein PUF4”.

The labels stand for the following.
T1: PUF4 RNA-binding domain (Saccharomyces cerevisiae, UniProt P25339 537-888)
T1 sequence: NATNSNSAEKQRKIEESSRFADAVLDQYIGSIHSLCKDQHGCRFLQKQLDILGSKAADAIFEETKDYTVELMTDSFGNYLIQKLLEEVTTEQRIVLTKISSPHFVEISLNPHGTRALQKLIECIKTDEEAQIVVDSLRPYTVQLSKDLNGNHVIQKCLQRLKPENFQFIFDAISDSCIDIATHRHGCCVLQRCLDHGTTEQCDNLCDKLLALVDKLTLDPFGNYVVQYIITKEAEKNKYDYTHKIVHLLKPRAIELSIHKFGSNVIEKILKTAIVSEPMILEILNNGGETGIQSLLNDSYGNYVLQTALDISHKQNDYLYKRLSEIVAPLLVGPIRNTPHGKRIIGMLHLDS

The series concerns the target T1, PUF4 RNA-binding domain. The series can be described thus: Mg; RNA-MaP; 20 mM Na-HEPES pH 7.4, 30 mM KOAc, 0.75 mM MgCl2, 0.1% Tween-20, 5% glycerol, 0.1 mg/mL BSA, 2 mM DTT; 25 C; 0.0125-409.6 nM protein. To be noted: tags: N-His6-TEV cleaved; C-SNAP kept, Cy3B-labelled; label: tethered on chip by stalled RNA polymerase.
As a reminder, the Kd is a measure of binding affinity in units of concentration. Low readings indicate a tighter complex, high ones a looser complex. In the case of UCUCUUACUAUAUUAUUACUUCUCUU (ssRNA) [Id_ii_S1_P5E.3_K5.2_C5.2_[C-2A]_[T-1C]_H5.2_A5.1_F5.1_T5.2_[T11C]_[A12T]], binding was characterised by a dissociation constant (Kd) of 0.486 µM.
In turn, UCUCUUUAUAUAUUAUUAAUUCUCUU (ssRNA) [Id_ii_S1_P5E.3_K5.2_C5.2_[C-2T]_[T-1A]_H5.2_A5.1_F5.1_T5.2_[T11A]_[A12T]] registered an equilibrium dissociation constant (Kd) of 0.021 µM.
UCUCUUUUUAUAUUAUUAGCUCUCUU (ssRNA) [Id_ii_S1_P5E.3_K5.2_C5.2_[C-2T]_H5.2_A5.1_F5.1_T5.2_[T11G]_[A12C]] returned a Kd of 0.16 µM.
The figure for UCUCUUACUAUAUUAUUAAAUCUCUU (ssRNA) [Id_ii_S1_P5E.3_K5.2_C5.2_[C-2A]_[T-1C]_H5.2_A5.1_F5.1_T5.2_[T11A]] is 0.626 µM; for UCUCUUUAUAUAUUAUUAAAUCUCUU (ssRNA) [Id_ii_S1_P5E.3_K5.2_C5.2_[C-2T]_[T-1A]_H5.2_A5.1_F5.1_T5.2_[T11A]] it is 0.0254 µM.
The figure for UCUCUUACUAUAUUAUUACCUCUCUU (ssRNA) [Id_ii_S1_P5E.3_K5.2_C5.2_[C-2A]_[T-1C]_H5.2_A5.1_F5.1_T5.2_[T11C]_[A12C]] is 0.52 µM; for UCUCUUUAUAUAUUAUUAUCUCUCUU (ssRNA) [Id_ii_S1_P5E.3_K5.2_C5.2_[C-2T]_[T-1A]_H5.2_A5.1_F5.1_T5.2_[A12C]] it is 0.021 µM; for UCUCUUACUAUAUUAUUAACUCUCUU (ssRNA) [Id_ii_S1_P5E.3_K5.2_C5.2_[C-2A]_[T-1C]_H5.2_A5.1_F5.1_T5.2_[T11A]_[A12C]] it is 0.706 µM.
Turning to UCUCUUUUUAUAUUAUUAUCUCUCUU (ssRNA) [Id_ii_S1_P5E.3_K5.2_C5.2_[C-2T]_H5.2_A5.1_F5.1_T5.2_[A12C]], the Kd is 0.549 µM.
On to UCUCUUUAUAUAUUAUUACCUCUCUU (ssRNA) [Id_ii_S1_P5E.3_K5.2_C5.2_[C-2T]_[T-1A]_H5.2_A5.1_F5.1_T5.2_[T11C]_[A12C]], for which the Kd was determined as 0.0141 µM.
UCUCUUUGUAUUAUGAUCUCUU (ssRNA) [Ia_S1_P5E.1_K5.1_C5.1_H5.1_A5.1_F5.1_[T9G]_T5.1] had a Kd of 0.0153 µM.
The value for UCUCUUUAUAUAUUAUUACUUCUCUU (ssRNA) [Id_ii_S1_P5E.3_K5.2_C5.2_[C-2T]_[T-1A]_H5.2_A5.1_F5.1_T5.2_[T11C]_[A12T]] was 0.0133 µM; that for UCUCUUUUUAUAUUAUUACAUCUCUU (ssRNA) [Id_ii_S1_P5E.3_K5.2_C5.2_[C-2T]_H5.2_A5.1_F5.1_T5.2_[T11C]] was 0.497 µM.
The value for UCUCUUUUUAUAUUAUUACUUCUCUU (ssRNA) [Id_ii_S1_P5E.3_K5.2_C5.2_[C-2T]_H5.2_A5.1_F5.1_T5.2_[T11C]_[A12T]] was 0.414 µM; that for UCUCUUACUAUAUUAUUACAUCUCUU (ssRNA) [Id_ii_S1_P5E.3_K5.2_C5.2_[C-2A]_[T-1C]_H5.2_A5.1_F5.1_T5.2_[T11C]] was 0.424 µM; that for UCUCUUUUUAUAUUAUUAAUUCUCUU (ssRNA) [Id_ii_S1_P5E.3_K5.2_C5.2_[C-2T]_H5.2_A5.1_F5.1_T5.2_[T11A]_[A12T]] was 0.457 µM.
Regarding UCUCUUUUUAUAUUAUUAACUCUCUU (ssRNA) [Id_ii_S1_P5E.3_K5.2_C5.2_[C-2T]_H5.2_A5.1_F5.1_T5.2_[T11A]_[A12C]], the Kd was 0.524 µM.
Take UCUCUUUGUAUUGUAUCUCUU (ssRNA) [Ib_S1_P4E.1_K4.1_C4.1_H4.1_A4.1_[A6T]_[T7G]_F4.1_T4.1]: the Kd was 0.00779 µM.
The figure for UCUCUUUUUAUAUUAUUACGUCUCUU (ssRNA) [Id_ii_S1_P5E.3_K5.2_C5.2_[C-2T]_H5.2_A5.1_F5.1_T5.2_[T11C]_[A12G]] is 0.434 µM; for UCUCUUACUAUAUUAUUAAUUCUCUU (ssRNA) [Id_ii_S1_P5E.3_K5.2_C5.2_[C-2A]_[T-1C]_H5.2_A5.1_F5.1_T5.2_[T11A]_[A12T]] it is 0.453 µM.
In the case of UCUCUUUUUAUAUUAUUAUUUCUCUU (ssRNA) [Id_ii_S1_P5E.3_K5.2_C5.2_[C-2T]_H5.2_A5.1_F5.1_T5.2_[A12T]], the Kd turned out to be 0.181 µM.
The value for UCUCUUUGUAUCAUAUCUCUU (ssRNA) [Ic_S1_P4E.1_K4.1_C4.1_H4.1_A4.1_[A6C]_[T7A]_F4.1_T4.1] was 0.00104 µM.
The value for UCUCUUUAUAUAUUAUUAACUCUCUU (ssRNA) [Id_ii_S1_P5E.3_K5.2_C5.2_[C-2T]_[T-1A]_H5.2_A5.1_F5.1_T5.2_[T11A]_[A12C]] was 0.0159 µM; that for UCUCUUUGUAUUCUAUCUCUU (ssRNA) [Ib_S1_P4E.1_K4.1_C4.1_H4.1_A4.1_[A6T]_[T7C]_F4.1_T4.1] was 0.00285 µM; that for UCUCUUUAUAUAUUAUUAUUUCUCUU (ssRNA) [Id_ii_S1_P5E.3_K5.2_C5.2_[C-2T]_[T-1A]_H5.2_A5.1_F5.1_T5.2_[A12T]] was 0.0176 µM.
